Experimental findings from US20210139579A1 are described below.

Positions count from the first letter of the chain named. Where two headings read alike, the source gives them in different places.

In assay [1] the target is human ROR1 (hROR1) on the cell surface (human) (UniProt Q01973). Briefly: cell-based or functional assay.
For assay [2] the target is unchanged. In words: cell-based or functional assay. The source holds these as a separate data set.

Chain of human ROR1 (hROR1) on the cell surface (human) (Q01973 30-937): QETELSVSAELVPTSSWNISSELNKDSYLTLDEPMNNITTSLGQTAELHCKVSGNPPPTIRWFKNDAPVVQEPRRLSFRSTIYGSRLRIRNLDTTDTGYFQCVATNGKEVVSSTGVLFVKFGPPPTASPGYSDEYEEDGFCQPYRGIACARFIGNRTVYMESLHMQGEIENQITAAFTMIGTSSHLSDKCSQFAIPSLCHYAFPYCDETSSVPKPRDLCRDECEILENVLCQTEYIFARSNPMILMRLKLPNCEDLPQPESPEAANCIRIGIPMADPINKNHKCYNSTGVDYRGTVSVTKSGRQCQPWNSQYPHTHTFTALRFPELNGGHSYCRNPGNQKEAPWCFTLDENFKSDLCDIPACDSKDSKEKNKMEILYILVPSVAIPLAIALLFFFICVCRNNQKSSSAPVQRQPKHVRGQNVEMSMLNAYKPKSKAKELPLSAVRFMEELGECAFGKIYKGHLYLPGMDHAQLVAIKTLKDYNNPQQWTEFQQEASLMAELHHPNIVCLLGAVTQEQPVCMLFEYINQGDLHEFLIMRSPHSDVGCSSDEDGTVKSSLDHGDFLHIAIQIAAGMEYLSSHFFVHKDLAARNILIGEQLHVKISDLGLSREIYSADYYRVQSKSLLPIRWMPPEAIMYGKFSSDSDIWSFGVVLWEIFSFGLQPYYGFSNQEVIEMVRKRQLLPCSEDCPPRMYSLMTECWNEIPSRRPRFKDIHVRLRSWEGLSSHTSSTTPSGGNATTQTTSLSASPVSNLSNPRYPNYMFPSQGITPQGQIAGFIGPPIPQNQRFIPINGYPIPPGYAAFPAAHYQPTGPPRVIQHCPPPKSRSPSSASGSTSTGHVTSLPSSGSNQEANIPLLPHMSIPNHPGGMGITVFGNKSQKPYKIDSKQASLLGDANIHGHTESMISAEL

B1: XBR1-402-G5-PNU (antibody, V domains shown)
VH: QEQQKESGGGLFKPTDTLTLTCTASGFDISSYYMSWVRQAPGNGLEWIGAIGISGNAYYASWAKSRSTITRNTNLNTVTLKMTSLTAADTATYFCARDHPTYGMDLWGPGTLVTVSS
VL: SYELTQLPSVSVSLGQTARITCEGNNIGSKAVHWYQQKPGLAPGLLIYDDDERPSGVPDRFSGSNSGDTATLTISGAQAGDEADYYCQVWDSSAYVFGGGTQLTVTG
modifications: EDA-PNU-159682 derivative on the C-terminal glycine (G5-PNU joined by sortase)
In assay [1], B1 registered an IC50, in vitro cell killing of A549 cells of 177 µg/mL; an IC50, in vitro cell killing of HS 578T cells of 1.4 µg/mL; an IC50, in vitro cell killing of HT-29 cells of 23.3 µg/mL; an IC50, in vitro cell killing of hROR1-overexpressing EMT-6 cells of 1.7 nM.

B2: Top43-G5-PNU (adc204) (antibody, V domains shown)
VH: QSLEESGGRLVTPGTPLTLTCTVSGFSLSSYWMSWVRQAPGKGLEWIGAIYGSGNTYYASWAKGRFTISKTSTTVDLKITSPTTEDTATYFCARDVHSTATDLWGPGTLVTISS
VL: SYELTQLPSVSVSLGQTARITCGGNNIGSKAVNWYQQKPGLAPGLLIYNDDERPSGVPDRFSGSNSGDTATLTISGAQAGDEADYYCQLWDSSAGAYVFGGGTQLTVTG
modifications: EDA-PNU-159682 derivative on the C-terminal glycine (G5-PNU joined by sortase)
In assay [1], B2 gave an IC50, in vitro cell killing of 697 cells of 0.314 µg/mL; an IC50, in vitro cell killing of A549 cells of 109 µg/mL; an IC50, in vitro cell killing of HS 578T cells of 0.707 µg/mL; an IC50, in vitro cell killing of HT-29 cells of 23.1 µg/mL. The molecule further came in with an IC50, in vitro cell killing of MDA-MB-468 cells in assay [1] of 0.463 µg/mL.

B3: ERR1-301-G5-PNU (adc200) (antibody, V domains shown)
VH: QEQLEESGGGLVTPGGSLTLTCTASGFTISTYHMSWVRQAPGKGLEWIGSIYAGSGSTYYASWVNGRFTISSNTTQNTVSLQMNSLTVADTATYFCARDHPSYGMDLWGPGTLVTVSS
VL: B2 VL with N26S, N49D, G63A, G80E, G95V
modifications: EDA-PNU-159682 derivative on the C-terminal glycine (G5-PNU joined by sortase)
Molecule B3 gave an IC50, in vitro cell killing of 697 cells in assay [1] of 0.592 µg/mL.

B4: R12-G5-PNU (antibody, V domains shown)
VH: QEQLVESGGRLVTPGGSLTLSCKASGFDFSAYYMSWVRQAPGKGLEWIATIYPSSGKTYYATWVNGRFTISSDNAQNTVDLQMNSLTAADRATYFCARDSYADDGALFNIWGPGTLVTISS
VL: ELVLTQSPSVSAALGSPAKITCTLSSAHKTDTIDWYQQLQGEAPRYLMQVQSDGSYTKRPGVPDRFSGSSSGADRYLIIPSVQADDEADYYCGADYIGGYVFGGGTQLTVTG
modifications: EDA-PNU-159682 derivative on the C-terminal glycine (G5-PNU joined by sortase)
In turn, B4 displayed an IC50, in vitro cell killing of 697 cells in assay [2] of 0.873 µg/mL. In addition, in assay [1], the IC50, in vitro cell killing of 697 cells came to 100 nM; the IC50, in vitro cell killing of HS 578T cells was determined as 3.5 µg/mL; the IC50, in vitro cell killing of HT-29 cells is 10.3 µg/mL; the IC50, in vitro cell killing of MDA-MB-468 cells stood at 3.96 µg/mL.
